According to article PMC3161067, “Combined SAXS/EM Based Models of the S. elongatus Post-Translational Circadian Oscillator and its Interactions with the Output His-Kinase SasA” (PLoS ONE, 2011):
Substitutions are numbered along the chain they refer to. In names and notes the source's numbering stands.

T1: KaiBC complex (KaiB with wild type KaiC) (S. elongatus, UniProt Q79PF5 1-102; Q79PF4 1-519)
T1 construct: KaiB, Synechococcus elongatus, as m2; wild type KaiC, Synechococcus elongatus, as m3; KaiC phosphorylation state varies in the cycling reaction; also called KaiB-KaiC; source: formed in the in vitro cycling reaction from purified proteins; copies: + 6
T1 sequence (looked up) 1: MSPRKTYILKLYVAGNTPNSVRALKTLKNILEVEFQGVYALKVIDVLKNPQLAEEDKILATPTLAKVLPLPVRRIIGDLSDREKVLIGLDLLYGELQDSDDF
T1 sequence (looked up) 2: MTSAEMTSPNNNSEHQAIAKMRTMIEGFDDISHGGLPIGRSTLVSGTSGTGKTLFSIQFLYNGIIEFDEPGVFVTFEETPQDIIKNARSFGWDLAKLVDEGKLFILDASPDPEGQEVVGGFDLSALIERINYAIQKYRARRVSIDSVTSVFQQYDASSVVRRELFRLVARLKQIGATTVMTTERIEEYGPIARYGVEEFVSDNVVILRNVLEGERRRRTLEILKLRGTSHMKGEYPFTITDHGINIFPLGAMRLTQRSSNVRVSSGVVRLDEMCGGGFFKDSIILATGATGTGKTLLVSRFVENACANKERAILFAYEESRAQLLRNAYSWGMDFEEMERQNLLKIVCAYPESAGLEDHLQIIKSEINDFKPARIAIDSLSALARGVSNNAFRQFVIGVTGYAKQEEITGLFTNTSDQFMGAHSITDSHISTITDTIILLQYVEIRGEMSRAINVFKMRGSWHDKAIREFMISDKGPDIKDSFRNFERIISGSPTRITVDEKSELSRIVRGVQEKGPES

B1: SasA (S. elongatus His kinase) (natural protein, UniProt Q06904 1-387, looked up)
chain: MGESLSPQALAQPLLLQLFVDTRPLSQHIVQRVKNILAAVEATVPISLQVINVADQPQLVEYYRLVVTPALVKIGPGSRQVLSGIDLTDQLANQLPQWLVQQEAFFADREPPEVNIPFTELGQPETPALQQADAFFQLQQQYADLSERTKFLEQVIALVAHDLRNPLTAALLAVDTIQIRSQSFSVATAKEMQGLCSLFDQARSQLREIERMIAEILEATRHSGESLRINPREVVFEPLLQQVLEQLHERWRSKQQQLITDVPGDLPTLYADPDRLRQVLVNLLDNAIKYTPPGGTITIAALHRTSQKVQISISDTGSGIPRDQLSVIFKNLVRLSRDSSQEGYGIGLSVCQRIVQAHFGRIWVASELGQGSTFHFTMPVYRYTMPC
notes: SasA, adaptive-response sensory His kinase, Synechococcus elongatus; N-terminal sensory domain is residues 1-97; its expression and purification are not described; also called full-length SasA; wt SasA
B2: wild type KaiC (S. elongatus) (natural protein, UniProt Q79PF4 1-519, looked up)
chain: T1 sequence (looked up) 2
notes: KaiC, Synechococcus elongatus; C-terminal residue S519; Its phosphorylation state varies in the cycling reaction; also called wt-KaiC; TST; source: E. coli BL21, purified
B3: KaiC T432E/S431E double mutant (natural protein, S. elongatus, UniProt Q79PF4 1-519, looked up)
chain: T1 sequence (looked up) 2 with S431E, T432E
modifications: phosphoserine at 320 (in the A and F subunits of the crystal structure)
notes: KaiC, Synechococcus elongatus, with S431E and T432E; the tag is therefore uncertain; also called KaiC-ee; S431E/T432E
B4: KaiC T432A/S431A double mutant (natural protein, S. elongatus, UniProt Q79PF4 1-519, looked up)
chain: T1 sequence (looked up) 2 with S431A, T432A
notes: KaiC, Synechococcus elongatus, with S431A and T432A; the tag is therefore uncertain; also called KaiC-aa; S431A/T432A
B5: KaiB (S. elongatus) (natural protein, UniProt Q79PF5 1-102, looked up)
chain: T1 sequence (looked up) 1
notes: KaiB, Synechococcus elongatus; Tetramer free in solution; The crystal model used for SAXS (PDB 2QKE) is KaiB of another species (T. elongatus); also called KaiB tetramer; wt KaiB; source: E. coli BL21, GST fusion, purified
B6: KaiA (S. elongatus) (natural protein, UniProt Q79PF6 1-284, looked up)
chain: MLSQIAICIWVESTAILQDCQRALSADRYQLQVCESGEMLLEYAQTHRDQIDCLILVAANPSFRAVVQQLCFEGVVVPAIVVGDRDSEDPDEPAKEQLYHSAELHLGIHQLEQLPYQVDAALAEFLRLAPVETMADHIMLMGANHDPELSSQQRDLAQRLQERLGYLGVYYKRDPDRFLRNLPAYESQKLHQAMQTSYREIVLSYFSPNSNLNQSIDNFVNMAFFADVPVTKVVEIHMELMDEFAKKLRVEGRSEDILLDYRLTLIDVIAHLCEMYRRSIPRET
notes: KaiA, Synechococcus elongatus; also called KaiA dimer; wt KaiA; source: E. coli BL21, GST fusion, purified

Tests used:
[1] = target: B4; assay: negative-stain EM; SasA:KaiC-aa complex, uranyl formate 0.75%, class averages and 3D reconstruction (C1) at 23.5 Å; conditions: both partners purified
[2] = target: B3; assay: SAXS; binary complexes in solution, conditions set by native PAGE, 0.5-2.0 mg/mL, 10 or 20°C; ab initio envelopes without symmetry; conditions: both partners purified
[3] = target: the molecule itself; assay: negative-stain EM; Kai complexes of the in vitro cycling reaction with 1x or 4x KaiA; reconstruction of class IV particles at ~30 Å
[4] = target: the molecule itself; assay: crystal structure; KaiC-ee with ATPγS, 3.0 Å, molecular replacement with PDB 3DVL
[5] = target: the molecule itself; assay: negative-stain EM; SasA:KaiC-aa complex, uranyl formate 0.75%, class averages and 3D reconstruction (C1) at 23.5 Å
[6] = target: B2; assay: negative-stain EM; Kai complexes of the in vitro cycling reaction with 1x or 4x KaiA; reconstruction of class IV particles at ~30 Å; conditions: both partners purified
[7] = target: the molecule itself; assay: SAXS; individual proteins in solution, 0.5-2.0 mg/mL, 10 or 20°C; ab initio envelopes (DAMMIN, GASBOR) compared with crystal structures
[8] = target: B4; assay: SAXS; binary complexes in solution, conditions set by native PAGE, 0.5-2.0 mg/mL, 10 or 20°C; ab initio envelopes without symmetry; conditions: both partners purified
[9] = target: T1, KaiBC complex (KaiB with wild type KaiC); assay: negative-stain EM; Kai complexes of the in vitro cycling reaction with 1x or 4x KaiA; reconstruction of class IV particles at ~30 Å; conditions: both partners purified

Binder: B1
- stoichiometry N [1]: 2 binding sites per KaiC hexamer
- stoichiometry N [2]: 2 SasA dimers per KaiC hexamer

Binder: B2
- stoichiometry N [3]: 6

Binder: B3
- stoichiometry N [4]: 6

Binder: B4
- stoichiometry N [5]: 6

Binder: B5
- stoichiometry N [2]: 2 KaiB dimers per KaiC hexamer
- binding result [6]: binds
- stoichiometry N [7]: 4

Binder: B6
- stoichiometry N [8]: 1 KaiA dimer per KaiC hexamer
- binding result [9]: binds
- stoichiometry N [7]: 2
